PMC4521159

Key:
[1] = biological target: α-synuclein oligomers formed during incubation with IDE (37 °C, 48 h, agitation) (UniProt P37840)
[2] = biological target: α-synuclein oligomers formed during incubation with IDE (37 °C, 48 h, agitation) (UniProt P37840); remark: listed apart in the source
[3] = biological target: pre-formed α-synuclein oligomers (formed with the small molecule FN075) (UniProt P37840); test: ITC; 200 μM IDE in the syringe, 20 μM pre-formed α-synuclein oligomers (FN075) in the cell; 20 or 30 °C; 20 mM phosphate pH 7.4, 140 mM NaCl

Work on “Insulin-degrading enzyme (IDE) (from UniProt P14735 1-1019)” yielded a kcat of 1 μM IDE on fluorogenic substrate V after 48 h pre-incubation with 0-100 μM α-synuclein (0.020 without; highest at 100 μM) [1] of 0.058 s⁻¹, a kcat of 3 μM IDE on fluorogenic substrate V after 48 h pre-incubation with 0-70 μM α-synuclein (0.241 without; highest at 35 μM) [1] of 0.397 s⁻¹ and a kcat/KM of 1 μM IDE on fluorogenic substrate V after 48 h pre-incubation with 0-100 μM α-synuclein (1010 without; highest at 100 μM) [1] of 1190 M⁻¹ s⁻¹. The kcat/KM of 3 μM IDE on fluorogenic substrate V after 48 h pre-incubation with 0-70 μM α-synuclein (25400 without; highest at 35 μM) [1] was 30500 M⁻¹ s⁻¹, the ThT fluorescence of 70 μM α-synuclein after 48 h (37 °C, agitation) with 0.2-6.0 μM IDE; half maximal inhibition of amyloid formation (molar ratio IDE to α-synuclein) [2] was 0.025 and the stoichiometry N (IDE molecules per α-synuclein oligomer) [3] was 3.
